In US20060148055A1 (published 2006):
No end group written: not given here. MDA = malondialdehyde

B1: multiple antigenic peptide SEQ ID NO: 1 MDA-conjugated (mapped peptide) (peptide)
peptide: ALQYKLEGTTR
modifications: also: multiple antigenic peptide, branching core and copy number not given here, MDA-conjugated, site not given here

Biological target: scavenger LDL receptor in monocytes
Assay: cell-based or functional assay

Row | Binder | Mean fluorescence (Ex 520 nm, Em 590 nm) of DiI-labelled oxidised LDL (50 ug) taken up by lipid-starved U937 monocytes with 500 ug peptide as competitor; oxidised LDL alone 3433, Control 1657
1 | ALSLSNK(MDA)FVEG [peptide SEQ ID NO: 3 MDA-conjugated] | 2000 fluorescence (unit not printed)
2 | B1 | 2610 fluorescence (unit not printed)
3 | RLTRK(MDA)RGLKLA [peptide SEQ ID NO: 2 MDA-conjugated] | 2450 fluorescence (unit not printed)
4 | ALQYK(MDA)LEGTTR (not fully specified) [peptide SEQ ID NO: 1 MDA-conjugated] | 2130 fluorescence (unit not printed)
5 | ALSLSNKFVEG [peptide SEQ ID NO: 3] | 1760 fluorescence (unit not printed)
6 | RLTRKRGLKLA [peptide SEQ ID NO: 2] | 1410 fluorescence (unit not printed)
